From patent US20030207263A1, “Method of screening therapeutic agents” (priority 1998, published 2003)

Tests used:
[1] = test system: CAGA-reporter cells (i.e F89 or 1613); assay: Toxic-compound control wells of the automated high throughput transcriptional screen; assay type: cell-based, human; conditions: 500 μM CPO in the presence of TGFβ
[2] = test system: renilla luciferase driven by the RSV LTR, clone 1613; assay: Renilla luciferase specificity/toxicity control (pRc/Renilla), clone 1613; conditions: for relative renilla luciferase activities (fold induction): value 1 = absence of TGFβ
Source text: (§1) The expression of this transgene should not be regulated by TGFβ or activin, i.e. it should not contain CAGA sequences in its regulatory regions. For instance, the renilla-luciferase gene can be transcribed from the RSV (Rous Sarcoma Virus) promoter or SV (Simian Virus 40) promoter. […] This means that an agent acting specifically through CAGA boxes-mediated transcription will have an effect on the firefly luciferase activity but not on the renilla luciferase activity.

[3] = test system: renilla luciferase driven by the RSV LTR, clone F89; assay: Renilla luciferase specificity/toxicity control (pRc/Renilla), clone F89; conditions: for relative renilla luciferase activities (fold induction): value 1 = absence of TGFβ
Source text: as §1

[4] = test system: CAGA box-mediated transcription ((CAGA)9MLP-Luc, clone F89); assay: TGFβ-responsive (CAGA)9MLP-Luc firefly luciferase reporter, stable clone F89; conditions: for relative firefly luciferase activities (fold induction): value 1 = absence of TGFβ
Procedure: (§2) Thus, the renilla luciferase activity can be used as an internal toxicity control.
(§3) At day 1, 40 (96 well-) microplates are seeded, using a multidrop apparatus, with CAGA-reporter cells (i.e F89 or 1613) at a concentration of 35000 cells per well in 200 μl of serum-containing medium.
(§4) 8 to 24 hours later (Day 2), microplates containing the chemical compounds to be tested, diluted in 100% DMSO, are placed in a carousel and the cell-incubation procedure is launched. The computer system coordinates then the actions of different peripheric equipments in order to incubate the cells in the presence of TGFβ with the coumpounds to be tested.
(§5) Cells and compounds microplates are moved through the robotic line to the adequate peripheries by the axial rotatable arm. Cells are washed and incubated in a serum-free medium. The pippetage station realizes different operations including preliminary dilutions in order to incubate the cells with TGFβ and the chemical compounds to be tested. The final concentration of TGFβ (rhTGFβ-1 from R & D) used in the test is 1 ng/mL and the compounds are tested at a final concentration of 10 μl in a final concentration of DMSO of 1%. Cells are incubated with the compounds to be tested 15-30 mn prior the addition of TGFβ. The final volume of the test reaction is 150 μl. Wells A1 through H10 are the test wells and contain cells incubated with the chemical agents to be tested in the presence of TGFβ. Each well contains only one singular chemical compound and allows to test its effect on CAGA-mediated transcription. Columns 11 and 12 are kept for controls. Column 11 contains 8 wells where cells are incubated in the presence of TGFβ without chemical compounds. Column 11 determines of the reference TGFβ-induced firefly luciferase value to which will be compared the values measured in the test wells to identify potential inhibitor or activator coumpounds. In wells A12 to D12, cells are grown in medium without TGFβ. The firefly luciferase value obtained with these points represents the ‘basal firefly luciferase activity’ and allows to control that the TGFβ induction is correct. In wells E12 to H12, cells are incubated in the presence of TGFβ with 500 μM CPO (Cyclopentenone, Sigma) which is a cell toxic compound. […] These points allows to control that the test is sensitive to toxic compounds.
(§6) 12 to 18 hours later (day 3), the luciferase quantification procedure is launched. The following reactions are realized using reagents of the Dual Luciferase Assay Kit from Promega. Cells are washed and lysed with the addition of 10 μl of passive lysis buffer (Promega). After 15 to 30 mn of agitation, luciferase activities of the plates are read in a dual-injector luminometer (BMG lumistar).

[5] = test system: human PAI-1 promoter (PAI-1-Luc, clone 1613); assay: Human PAI-1-Luc firefly luciferase reporter, stable clone 1613; conditions: for relative firefly luciferase activities (fold induction): value 1 = absence of TGFβ
Procedure: as §2, §3, §4, §5, §6

[6] = test system: CAGA box reporter vector in HepG2 cells; assay: Transient CAGA boxes-MLP-Luc reporter in HepG2 cells; conditions: (CAGA)12-MLP-Luc, TGFβ 10 ng/mL
Procedure: (§7) FIG. 1C: HepG2 and Mv1Lu cells were transfected with p3TP-Lux or a vector containing nine or twelve copies of the CAGA box upstream of the minimal Adenovirus Major Late Promoter (MLP). Fold inductions by TGFβ are given for HepG2 cells.
(§8) FIG. 3B: HepG2 cells were transfected with a (CAGA)12-MLP-Luc reporter construct and induced by BMP-7, activin or TGFβ (respectively 100 ng/mL, 20 ng/mL and 10 ng/mL).
(§9) HepG2 and MDA-MB468 cells were transiently transfected, with the indicated constructs and the internal control pRL-TK vector, using the calcium phosphate co-precipitation method. When increasing amounts of expression vectors were transfected, total DNA was kept constant by addition of pCMV5. Cells were serum starved for 8 h before stimulation with 7 ng/mL of human recombinant TGFβ1 (R&D) and luciferases activities were quantified 14 h later using the Dual Luciferase Assay (Promega). For activin and BMP-7 (Creative Biomolecules) induction, respectively 20 ng/mL and 100 ng/mL were used. Values were normalized with the renilla luciferase activity expressed from pRL-TK. […] Luciferase values shown in figures are representative of transfection experiments done at least three times.

[7] = test system: CAGA box reporter vector in HepG2 cells
Procedure: as §7, §8, §9

## O=C1C=CCC1 [CPO, Cyclopentenone]
[1]
  firefly luciferase activity relative to TGFβ-only wells: around 50%
  renilla luciferase activity relative to TGFβ-only wells: around 50%

## CCOc1cc(/C=C(\C#N)C(N)=O)cc(CSc2ccccc2)c1O [Compound A, α-cyano4-hydroxy-3-ethoxy-5-phenylthiomethyl cinnamamide]
[2]; specificity/toxicity control
  inhibitory effect on the renilla luciferase activities: not on the renilla luciferase activities
[3]; specificity/toxicity control
  inhibitory effect on the renilla luciferase activities: not on the renilla luciferase activities
[4]; compound A 0.1 μM
  firefly luciferase activity (value 100 = absence of compound A, 1 ng/mL TGFβ): 98
[4]; compound A 1 μM
  firefly luciferase activity (value 100 = absence of compound A, 1 ng/mL TGFβ): 95
[4]; compound A 5 μM
  firefly luciferase activity (value 100 = absence of compound A, 1 ng/mL TGFβ): 86
[4]; compound A 10 μM
  firefly luciferase activity (value 100 = absence of compound A, 1 ng/mL TGFβ): 23
[5]; compound A 0.1 μM
  firefly luciferase activity (value 100 = absence of compound A, 1 ng/mL TGFβ): 105
[5]; compound A 1 μM
  firefly luciferase activity (value 100 = absence of compound A, 1 ng/mL TGFβ): 102
[5]; compound A 5 μM
  firefly luciferase activity (value 100 = absence of compound A, 1 ng/mL TGFβ): 65
[5]; compound A 10 μM
  firefly luciferase activity (value 100 = absence of compound A, 1 ng/mL TGFβ): 36

## TGFβ: human recombinant TGFβ1 (R&D), cytokine used to induce CAGA box-mediated transcription
[2]; TGFβ 0.2 ng/mL
  relative renilla luciferase activities (fold induction): 0.8 fold induction
[2]; TGFβ 1 ng/mL
  relative renilla luciferase activities (fold induction): 1 fold induction
[2]; TGFβ 5 ng/mL
  relative renilla luciferase activities (fold induction): 1 fold induction
[2]; TGFβ 10 ng/mL
  relative renilla luciferase activities (fold induction): 1.3 fold induction
[3]; TGFβ 0.2 ng/mL
  relative renilla luciferase activities (fold induction): 1.1 fold induction
[3]; TGFβ 0.5 ng/mL
  relative renilla luciferase activities (fold induction): 1.1 fold induction
[3]; TGFβ 1 ng/mL
  relative renilla luciferase activities (fold induction): 1.2 fold induction
[3]; TGFβ 5 ng/mL
  relative renilla luciferase activities (fold induction): 1.5 fold induction
[3]; TGFβ 10 ng/mL
  relative renilla luciferase activities (fold induction): 1.8 fold induction
[4]; TGFβ 0.2 ng/mL
  relative firefly luciferase activities (fold induction): 6 fold induction
[4]; TGFβ 0.5 ng/mL
  relative firefly luciferase activities (fold induction): 31 fold induction
[4]; TGFβ 1 ng/mL
  relative firefly luciferase activities (fold induction): 109 fold induction
[4]; TGFβ 5 ng/mL
  relative firefly luciferase activities (fold induction): 461 fold induction
[4]; TGFβ 10 ng/mL
  relative firefly luciferase activities (fold induction): 737 fold induction
[5]; TGFβ 0.2 ng/mL
  relative firefly luciferase activities (fold induction): 8 fold induction
[5]; TGFβ 1 ng/mL
  relative firefly luciferase activities (fold induction): 26.2 fold induction
[5]; TGFβ 5 ng/mL
  relative firefly luciferase activities (fold induction): 43.5 fold induction
[5]; TGFβ 10 ng/mL
  relative firefly luciferase activities (fold induction): 50.1 fold induction
[6]
  fold induction of CAGA boxes containing reporter: 200 fold
[7]
  TGFβ-mediated fold induction: Several hundred
